Patent US20060183159A1, “Method for engineering a protein by in vitro coevolution” (priority 2005, published 2006)
Entries after “also recorded” stand apart in the source; their conditions may differ.

Tests used:
[1] = Scatchard analysis of E2 binding to wild-type and mutant hERαLBD proteins; settings: n = 2-3, error = range (n = 2) or S.E. (n > 2)
[2] = system: progesterone; test: Yeast two-hybrid based cell growth assay, response to progesterone; settings: in yeast; saturating ligand concentration 10^−5 M
Experimental: (§1) A yeast two-hybrid based cell growth assay was used to quantify the ligand activity of the wild-type and mutant hERαLBD in 96-well plates (Chen, et al. (2004) supra). Briefly, yeast cells harboring the plasmid containing the target hERαLBD and plasmid pGAD424 SRC-1 were grown to saturation (OD600 4-5) in 2-3 mL minimal medium lacking tryptophan and leucine, and then diluted to OD600 0.002 using minimal medium lacking tryptophan, leucine and histidine. Each well contained 200 μL diluted yeast cells and 0.2 μL of specified ligand dissolved in 100% ethanol (E2, testosterone, and progesterone) or DMSO (corticosterone). The 96-well plates were incubated at 30° C. for 24 hours and the cell density was measured at 600 nm using a SPECTRAMAX® plate reader (Molecular Devices, Sunnyvale, Calif.).

[3] = Competitive binding (RBA) with 2 nM [3H]-E2, testosterone
[4] = Competitive binding (RBA) with 2 nM [3H]-E2, corticosterone
[5] = system: corticosterone; test: Yeast two-hybrid based cell growth assay, response to corticosterone; settings: in yeast; corticosterone 10^−4 M, 24 hours (up to four days at 30° C.)
Experimental: as §1

[6] = Competitive binding (RBA) with 2 nM [3H]-E2, progesterone
[7] = RBA = EC50^E2/EC50^ligand × 100, 2 nM [3H]-E2

B1: Pg10-1: hERαLBD variant with Glu353Gln, Gly390Asp, His524Asn, Leu536His, Thr585Ser (SEQ ID NOs:11 and 12) (protein)
chain: MTMTLHTKASGMALLHQIQGNELEPLNRPQLKIPLERPLGEVYLDSSKPAVYNYPEGAAYEFNAAAAANAQVYGQTGLPYGPGSEAAAFGSNGLGGFPPLNSVSPSPLMLLHPPPQLSPFLQPHGQQVPYYLENEPSGYTVREAGPPAFYRPNSDNRRQGGRERLASTNDKGSMAMESAKETRYCAVCNDYASGYHYGVWSCEGCKAFFKRSIQGHNDYMCPATNQCTIDKNRRKSCQACRLRKCYEVGMMKGGIRKDRRGGRMLKHKRQRDDGEGRGEVGSAGDMRAANLWPSPLMIKRSKKNSLALSLTADQMVSALLDAEPPILYSEYDPTRPFSEASMMGLLTNLADRQLVHMINWAKRVPGFVDLTLHDQVHLLECAWLEILMIDLVWRSMEHPGKLLFAPNLLLDRNQGKCVEGMVEIFDMLLATSSRFRMMNLQGEEFVCLKSIILLNSGVYTFLSSTLKSLEEKDHIHRVLDKITDTLIHLMAKAGLTLQQQHQRLAQLLLILSHIRHMSNKGMENLYSMKCKNVVPHYDLLLEMLDAHRLHAPTSRGGASVEETDQSHLATAGSTSSHSLQKYYISGEAEGFPATV
Kd [1]: 0.00081 ± 0.00023 µM | response to progesterone [2]: responses to progesterone at nanomolar concentrations | RBA T (testosterone) [3, 7]: 0.21 ± 0.06 (3) | Kd ([3]; calculated with Kd^ligand = (Kd^E2/RBA) × 100, read-out: Kd T (testosterone)): 0.388 µM | RBA Cs (corticosterone) [4, 7]: 0.008 ± 0.001 (3) | Kd ([4]; calculated with Kd^ligand = (Kd^E2/RBA) × 100, read-out: Kd Cs (corticosterone)): 10.3 µM | response to corticosterone [5]: significant responses to corticosterone; also recorded: responded to corticosterone at submillimolar concentrations | RBA Pg (progesterone) [6, 7]: 0.679 ± 0.021 (3) | Kd ([6]; calculated with Kd^ligand = (Kd^E2/RBA) × 100, read-out: Kd Pg (progesterone)): 0.119 µM
